Test results reported in patent US20230037911A1 (SHANGHAI HENLIUS BIOTECH, published 2023).
Positions count from the first letter of the chain named.

T1: recombinant human TIGIT extra cellular domain (ECD) protein (human, UniProt Q495A1 22-138)
T1 construct: Purchased protein; it begins with the signal peptide; also called h-TIGIT ECD; human TIGIT ECD
T1 sequence: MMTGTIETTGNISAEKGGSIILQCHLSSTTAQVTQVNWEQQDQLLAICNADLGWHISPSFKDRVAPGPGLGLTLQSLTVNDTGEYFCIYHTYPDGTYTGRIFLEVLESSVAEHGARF

T2: recombinant mouse-TIGIT (mouse, UniProt P86176 29-148, limits assumed)
T2 sequence (looked up): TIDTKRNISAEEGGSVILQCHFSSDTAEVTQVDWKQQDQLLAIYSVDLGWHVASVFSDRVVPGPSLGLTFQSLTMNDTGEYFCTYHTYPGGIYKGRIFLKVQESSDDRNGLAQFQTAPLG

B1: 1G1-1C12 VHH (VHH)
VHH: QVQLVESGGGVVQPGRSLRLSCAASGPSFSSYPMGWFRQAPGKERESVAAISSDLRFTYYADSVKGRFTISRDNSKNTLYLQMNSLRAEDTAVYYCAARDSGSGYYSRKQWYDYWGQGTLVTVSS
notes: VHH in bacterial supernatant
B2: Bivalent 2A3 antibody (2A3-Fc), 2A3 VHH with human IgG1 CH2 and CH3 domains (Fc fusion)
chain: B1 VHH with P27G, L55M, S103V, K109A
notes: Expressed in ExpiCHO, protein A purified; also called 2A3-Fc mAb; 2A3 clone; not shown: human IgG1 CH2 and CH3 domains
B3: human TIGIT stably expressed on cells (Jurkat; 293T) (receptor)
chain: MMTGTIETTGNISAEKGGSIILQCHLSSTTAQVTQVNWEQQDQLLAICNADLGWHISPSFKDRVAPGPGLGLTLQSLTVNDTGEYFCIYHTYPDGTYTGRIFLEVLESSVAEHGARFQIPLLGAMAATLVVICTAVIVVVALTRKKKALRIHSVEGDLRRKSAGQEEWSPSAPSPPGSCVQAEAAPAGLCGEQRGEDCAELHDYFNVLSYRSLGNCSFFTETG
notes: the expression vector's insert is not described further; also called h-TIGIT; human TIGIT transfected Jurkat cells

Legend:
[1] = molecular target: T1, recombinant human TIGIT extra cellular …; experiment: ELISA, VHH in supernatant
[2] = molecular target: B3; experiment: cell-based or functional assay
[3] = molecular target: B3; experiment: whole cell binding, flow cytometry, n=3
[4] = molecular target: T3, recombinant cynomolgus TIGIT (cyno-TIGIT ECD) (cynomolgus monkey, UniProt A0A7N9I9V4 89-209); experiment: ELISA on recombinant cyno-TIGIT
T3 construct: extracellular domain

[5] = molecular target: T1, recombinant human TIGIT extra cellular …; experiment: ELISA on recombinant human TIGIT ECD
recombinant mouse-TIGIT = molecular target: T2, recombinant mouse-TIGIT; experiment: ELISA
[6] = molecular target: B3; experiment: flow cytometry, whole cell binding assay on human TIGIT expressing cells (upper panel)
[7] = molecular target: B3; experiment: cell-based or functional assay; remark: listed apart in the source
[8] = molecular target: T4, 1C12-EREW humanized bivalent antibody (human, UniProt P01857-1 104-330 = IgG part, limits assumed); experiment: flow cytometry, whole cell binding on h-TIGIT transfected Jurkat cells; anti-human IgG Fc AlexaFluor488 secondary
T4 construct: domain: CH2 and CH3; Called humanized bivalent antibody; the Fc part is not restated; also called 1C12 (F-EREW)
Protocol: (§1) The binding affinities of the humanized bivalent antibodies to human TIGIT were determined by whole cell binding to h-TIGIT stably expressed on Jurkat cells. Briefly, antibodies were incubated with h-TIGIT transfected Jurkat cells (0.2×10⁶/well in 100 μl) for 30 min in FACS buffer. The cells were washed once, then incubated with anti-human IgG Fc AlexaFluor488 (1:500).

[9] = molecular target: T5, 1C12-GLEW humanized bivalent antibody (human, UniProt P01857-1 104-330 = IgG part, limits assumed); experiment: as above
T5 construct: domain: CH2 and CH3; Called humanized bivalent antibody; the Fc part is not restated; also called 1C12(F-GLEW)
Protocol: as §1

[10] = molecular target: T6, 1G1-F-A-ERES humanized bivalent antibody (human, UniProt P01857-1 104-330 = IgG part, limits assumed); experiment: as above
T6 construct: domain: CH2 and CH3; Called humanized bivalent antibody; the Fc part is not restated
Protocol: as §1

[11] = molecular target: T7, 1C12-EREF humanized bivalent antibody (human, UniProt P01857-1 104-330 = IgG part, limits assumed); experiment: as above
T7 construct: domain: CH2 and CH3; Called humanized bivalent antibody; the Fc part is not restated; also called 1C12 (F-EREF)
Protocol: as §1

[12] = molecular target: T8, 1G1-F-G-ERES humanized bivalent antibody (human, UniProt P01857-1 104-330 = IgG part, limits assumed); experiment: as above
T8 construct: domain: CH2 and CH3; Called humanized bivalent antibody; the Fc part is not restated
Protocol: as §1

[13] = molecular target: T9, 3G6 bivalent VHH antibody (VHH with human CH2 and CH3) (human, UniProt P01857-1 104-330 = IgG part, limits assumed); experiment: flow cytometry, whole cell binding on Jurkat cells stably expressing human TIGIT; Alexa Fluor 488 anti-human IgG Fc secondary
T9 construct: domain: CH2 and CH3
Excerpt: (§2) FIGS. 1A-1C depict whole cell binding of representative VHH bivalent antibodies to human TIGIT determined by flowcytometry assays. […] Y axis represents Mean Fluorescence Intensity of AlexaFlour 488. X axis represents antibody concentrations in nanomolar. […] FIG. 1C is a schematic of the structure of a TIGIT VHH bivalent antibody.
(§3) Jurkat cells stably expressing human TIGIT and NFAT reporter gene were established. Specifically, Jurkat cells were transfected with human TIGIT expression vector by electroporation, and cells stably expressing human TIGIT were selected by 1 μg/ml puromycin during cell culture. Representative antibody clones were incubated at different concentrations with h-TIGIT stably expressing Jurkat cells (0.2×10⁶/ml) in 100 μl/well in 96-well plate in FACS buffer (PBS with 1.5% FBS) for 30 min. After washing, Alexaflour 488 conjugated anti-human IgG Fc secondary antibody (Alexa Fluor® 488 AffiniPure Goat Anti-Human IgG, Fcγ fragment specific, Jackson labs, 1:500 dilution) was added and incubated for 30 min. After washing, mean fluorescence intensity was measured using CytoFlex (Beckman Coulter) by gating live cell population. Binding affinity was calculated using GraphPad Prism.

[14] = molecular target: T10, 2B7 bivalent VHH antibody (VHH with human CH2 and CH3) (human, UniProt P01857-1 104-330 = IgG part, limits assumed); experiment: as above
T10 construct: domain: CH2 and CH3; Expressed in ExpiCHO, Protein A purified
Excerpt: as §2, §3

[15] = molecular target: T11, 13H11 bivalent VHH antibody (VHH with human CH2 and CH3) (human, UniProt P01857-1 104-330 = IgG part, limits assumed); experiment: as above
T11 construct: domain: CH2 and CH3
Excerpt: as §2, §3

[16] = molecular target: T12, 15A5 bivalent VHH antibody (VHH with human CH2 and CH3) (human, UniProt P01857-1 104-330 = IgG part, limits assumed); experiment: as above
T12 construct: domain: CH2 and CH3
Excerpt: as §2, §3

[17] = molecular target: T13, 2B10 bivalent VHH antibody (VHH with human CH2 and CH3) (human, UniProt P01857-1 104-330 = IgG part, limits assumed); experiment: as above
T13 construct: domain: CH2 and CH3
Excerpt: as §2, §3

[18] = molecular target: T14, 3G7 bivalent VHH antibody (VHH with human CH2 and CH3) (human, UniProt P01857-1 104-330 = IgG part, limits assumed); experiment: as above
T14 construct: domain: CH2 and CH3
Excerpt: as §2, §3

T14 sequence (P01857 other isoform, or with tags, fused parts or gaps limits assumed): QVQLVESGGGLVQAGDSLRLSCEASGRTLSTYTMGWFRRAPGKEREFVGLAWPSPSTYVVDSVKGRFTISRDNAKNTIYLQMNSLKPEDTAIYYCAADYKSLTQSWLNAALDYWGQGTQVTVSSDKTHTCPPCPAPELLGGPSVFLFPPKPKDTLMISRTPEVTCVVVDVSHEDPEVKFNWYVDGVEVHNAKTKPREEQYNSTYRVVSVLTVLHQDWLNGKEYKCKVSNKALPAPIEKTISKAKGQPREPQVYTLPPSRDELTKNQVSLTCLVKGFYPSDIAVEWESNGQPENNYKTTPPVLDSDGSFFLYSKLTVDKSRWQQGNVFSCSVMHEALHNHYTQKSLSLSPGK
T11 sequence (P01857 other isoform, or with tags, fused parts or gaps limits assumed): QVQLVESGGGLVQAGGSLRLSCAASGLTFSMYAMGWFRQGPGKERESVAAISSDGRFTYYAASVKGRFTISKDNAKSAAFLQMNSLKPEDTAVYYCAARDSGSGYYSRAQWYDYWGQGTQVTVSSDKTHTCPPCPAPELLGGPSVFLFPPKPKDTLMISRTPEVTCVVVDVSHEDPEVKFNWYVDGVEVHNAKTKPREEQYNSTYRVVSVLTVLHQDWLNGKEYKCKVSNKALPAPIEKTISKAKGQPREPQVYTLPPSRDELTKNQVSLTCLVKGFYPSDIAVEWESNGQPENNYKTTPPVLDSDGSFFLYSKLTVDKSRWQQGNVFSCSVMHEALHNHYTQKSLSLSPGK
T9 sequence (P01857 other isoform, or with tags, fused parts or gaps limits assumed): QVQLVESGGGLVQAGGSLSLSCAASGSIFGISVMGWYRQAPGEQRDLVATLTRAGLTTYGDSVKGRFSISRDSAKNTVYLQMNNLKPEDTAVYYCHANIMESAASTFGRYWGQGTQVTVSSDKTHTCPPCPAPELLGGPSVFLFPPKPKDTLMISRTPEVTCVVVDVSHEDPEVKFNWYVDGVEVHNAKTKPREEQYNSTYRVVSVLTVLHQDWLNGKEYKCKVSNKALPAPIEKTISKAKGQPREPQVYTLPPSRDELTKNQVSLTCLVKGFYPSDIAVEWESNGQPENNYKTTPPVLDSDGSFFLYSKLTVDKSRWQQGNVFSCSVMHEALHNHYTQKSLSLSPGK
T12 sequence (P01857 other isoform, or with tags, fused parts or gaps limits assumed): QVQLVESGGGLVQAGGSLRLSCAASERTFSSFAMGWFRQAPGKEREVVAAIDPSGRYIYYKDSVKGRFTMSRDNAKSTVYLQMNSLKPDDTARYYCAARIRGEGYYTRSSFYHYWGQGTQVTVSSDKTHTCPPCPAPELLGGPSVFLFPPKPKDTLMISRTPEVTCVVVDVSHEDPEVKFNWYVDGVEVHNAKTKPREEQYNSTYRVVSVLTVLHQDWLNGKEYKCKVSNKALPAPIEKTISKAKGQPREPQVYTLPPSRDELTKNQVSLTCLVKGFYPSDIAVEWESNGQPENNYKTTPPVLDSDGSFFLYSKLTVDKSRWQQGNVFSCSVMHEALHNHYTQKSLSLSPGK
T13 sequence (P01857 other isoform, or with tags, fused parts or gaps limits assumed): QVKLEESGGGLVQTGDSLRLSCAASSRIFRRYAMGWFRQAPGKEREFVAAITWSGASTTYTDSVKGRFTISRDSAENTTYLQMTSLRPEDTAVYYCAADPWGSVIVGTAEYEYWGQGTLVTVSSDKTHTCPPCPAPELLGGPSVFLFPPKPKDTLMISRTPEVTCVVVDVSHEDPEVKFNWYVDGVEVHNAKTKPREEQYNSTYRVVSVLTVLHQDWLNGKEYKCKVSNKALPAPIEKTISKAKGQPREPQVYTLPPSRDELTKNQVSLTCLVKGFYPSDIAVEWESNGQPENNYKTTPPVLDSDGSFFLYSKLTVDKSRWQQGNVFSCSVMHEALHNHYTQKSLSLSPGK
T10 sequence (P01857 other isoform, or with tags, fused parts or gaps limits assumed): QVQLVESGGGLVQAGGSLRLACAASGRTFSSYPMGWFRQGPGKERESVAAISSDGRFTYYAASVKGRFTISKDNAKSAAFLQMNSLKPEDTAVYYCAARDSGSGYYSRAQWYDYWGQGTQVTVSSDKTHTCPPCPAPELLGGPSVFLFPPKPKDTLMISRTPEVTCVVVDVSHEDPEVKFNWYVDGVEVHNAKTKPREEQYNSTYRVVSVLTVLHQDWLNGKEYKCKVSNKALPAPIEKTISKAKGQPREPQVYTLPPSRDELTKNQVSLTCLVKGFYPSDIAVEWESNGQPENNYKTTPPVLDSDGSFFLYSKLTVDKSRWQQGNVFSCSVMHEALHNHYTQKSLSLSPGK
T3 sequence (A0A7N9I9V4 entry or part of it): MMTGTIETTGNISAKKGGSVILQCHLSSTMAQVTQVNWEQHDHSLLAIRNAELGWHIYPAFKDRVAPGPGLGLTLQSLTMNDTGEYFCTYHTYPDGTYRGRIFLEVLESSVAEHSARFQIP

Q: Does B1 bind [1]?
A: binds

Q: What does the source list for B2?
A: EC50, TIGIT blockade NFAT luciferase reporter assay [2]: 0.48 nM; EC50 [3]: 0.32 nM; EC50 (read off the curve) [4]: ~0.1 µg/mL; EC50 (read off the curve) [5]: ~0.1 µg/mL; binding result (recombinant mouse-TIGIT): no binding; EC50 (read off the curve) [6]: ~0.5 nM; EC50 (read off the curve); NFAT reporter activity (RLU), human TIGIT blockade reporter assay (lower panel) [7]: ~1 nM

Q: Does B3 bind [8]?
A: binds

Q: Does B3 bind [9]?
A: binds

Q: Does B3 bind [10]?
A: binds

Q: Does B3 bind [11]?
A: binds

Q: Does B3 bind [12]?
A: binds

Q: Does B3 bind [13]?
A: binds

Q: Does B3 bind [14]?
A: binds

Q: Does B3 bind [15]?
A: binds

Q: Does B3 bind [16]?
A: binds

Q: Does B3 bind [17]?
A: binds

Q: Does B3 bind [18]?
A: binds
